Assay: soluble on expression in E. coli; label from the status in PepcDB or PDB records

| Sequence | soluble on expression in E. coli |
| --- | --- |
| MGSDKIHHHHHHMINQVYQLVAPRQFEVTYNNVDIYSDYVIVRPLYMSICAADQRYYTGSRDENVLSQKLPMSLIHEGVGEVVFDSKGVFNKGTKVVMVPNTPTEKDDVIAENYLKSSYFRSSGHDGFMQDFVLLNHDRAVPLPDDIDLSIISYTELVTVSLHAIRRFEKKSISNKNTFGIWGDGNLGYITAILLRKLYPESKIYVFGKTDYKLSHFSFVDDVFFINKIPEGLTFDHAFECVGGRGSQSAINQMIDYISPEGSIALLGVSEFPVEVNTRLVLEKGLTLIGSSRSGSKDFQDVVDLYIQYPDIVDKLALLKGQEYEIATINDLTEAFEADLSTSWGKTVLKWIM | not soluble |
| RVQLLESGAELMKPGASVQISCKATGYTFSEYWIEWVKERPGHGLEWIGEILPGSGRTNYREKFKGKATFTADTSSNTAYMQLSSLTSEDSAVYYCTRGYSSMDYWGQGTSVTVSAAKTTPPSVYPLAPGCGDTTGSSVTLGCLVKGYFPESVTVTWNSGSLSSSVHTFPALLQSGLYTMSSSVTVPSSTWPSQTVTCSVAHPASSTTVDKKLEPSGPI | soluble |
| MGSDKIHHHHHHMGNPSWINVFALVDYRSSSDTLYRVEEGLIPLETFDEINSGDPVVLSSFLNAYRGEDLSLLVIWNHGDWWRGESQKQVKGVAYDFVNLDFFTIKEIKSVLRDSPVTVLGFDACLMGTFEILWELKDCARYVVVSSKEAPGNGWDYSVLRYSKDLSSLLSNIVKRYGEIYGTEYSLSVWDTSKLDEIMLWLDRVAQYMIENNLSPWEFEVERRTAGGSTTELVELGSFAKSLQNSSDVVLREYGEGLYSAIVSARVYGTPDNYTDLTIYLPQNMKNPEYWDDFVALSDFTSESSWDDLIEHWRDKN | not soluble |
| MGSDKIHHHHHHMTKIESLGSVKRKAVNISPEDLIKTEFLQPGNNFPLVIKPNVKGVDLQNWAKNNREFLKAELLKYGAILFRDFKVKSIEEFEQIIAAICGEAMEYRYRASPRTQVGGRIYTSTDYPAEQSIFPHNEHAYSPTFPLKIFFFCMSPAAQGGETPIGSCRKVFERIHPDIRDRFIQKKVMYMRNFGDGFGLPWQTVFQTTDKTKVEEYCKINGIEVEWKADNRLRTRQVGPVVLKHPQTGEMVWFNHATFFHVSTLESTIRDSLLTNLPEEDLPTNTYYGDGSAIEPSVLAELRAAYQQEMVTFSWEKGHVLMLDNMLSIHARQPFVPPRKILVGMAEAHTPIPLG | not soluble |
| KNRIGTKALNFTYTLASGAQGSLYQLKAEYLLLFINNPGCQACTETIEGLKNAPIINQLLQEKKLVLLSIYPDEELDEWKKHLSEFPNEWINGYDKKFTIKEEQVYDLKAIPTLYLLDKDKTVLLKDATAPAIEAYLMQHQ | not soluble |
| SLPIFEARVKVGISSSWVTSRKVSWRDAIAQIESDRIVVKYLKMGEVVGEDSFPFSALIDLGVRIPDELKLNPEKDHFGIKFYIPGRGELLVIFTIEENLLIYDEKKFSEFVHKVFEVLINGKTVMLQLARIIGGAVNMESKWEEGWLRVIKVKSARTQKTERSIVVIIKDKRPVSIFSDLEDIEIEEVDMNGKRVRAWKIRHFHIDQSVTSYLYIPDKQTQLYVLRYLLKYNPAIMEFIMKVSDDFPTLKSEFQEIMEKEIKELEALDEMEKQILVALYSGINPLELHQFLGVSEKEIEEIYDRMIDKGLLKIVMIRKIVDLTNEGRKIVNKLLKYGLVSM | soluble |
| MSLDLKQVLRATMVKGVLQRGTIALGNDPGVLRIYTRAACPGTLAKNYLGEWCFASKVAEEASPRVHVVGDIHGNIEALFKVLIRTKLFILDEPMSNESYEGYEDPEEPFSVKGWGVHPRYAVEGTQKYIVKDYDHIYLFLGDYVDRGSFSIECLVVLLGLKILFPNAVYLLRGNHETRACLQRGQLFQELIHKYEYVEASKITDRLLRLFDALPTCALINDYVFAVHAGIYSKNASLADIEKYCTKRAPCSKFHTKAPYFDPLHNMLWADFVEDQPAIDLSQDNRRRNTGIVFYPSTVKEFLKNEGLGLFIRGHQSTPFGVSISQTGKLVTVSINSDSTPTWLGAVLTLVHPADADASESISPVNLASEGHHHHHH | not soluble |
| MAHHHHHHMEPLIIDNLYKFGDEEVRLGIDEAGRGPVLGPMVYAGFYCNKEHEKLLKEMKIDDSKKISEADREMMFHKLNNSSLPFGWRIHVLMPQDISAKMLKKQKYNLNEISHDTAISIIDHVISRGCNLTEVFVDTVGKPSVYEEKLKRLFPHIKCTVKEKADSLYPVVSAASICAKVTRDFLIKKWKYEEPLVNIDKGFGSGYPGDPITKNFLKNNFDTVFGFPSIVRFSWSTADNMLETMGEQIEWYDDIENNDSKAIKRKTPFDYSKLQKPFVQRSLFYSKVGLDLVENL | not soluble |
| MSVKISGKDYAGMYGPTKGDRVRLADTDLIIEIEEDYTVYGDECKFGGGKSIRDGMGQSPSAARDDKVLDLVITNAIIFDTWGIVKGDIGIKDGKIAGIGKAGNPKVMSGVSEDLIIGASTEVITGEGLIVTPGGIDTHIHFICPQQIETALFSGITTMIGGGTGPADGTNATTCTPGAFNIRKMLEAAEDFPVNLGFLGKGNASFETPLIEQIEAGAIGLKLHEDWGTTPKAIDTCLKVADLFDVQVAIHTDTLNEAGFVENTIAAIAGRTIHTYHTEGAGGGHAPDIIKIASRMNVLPSSTNPTMPFTVNTLDEHLDMLMVCHHLDSKVKEDVAFADSRIRPETIAAEDILHDMGVFSMMSSDSQAMGRVGEVIIRTWQTAHKMKLQRGALPGEKSGCDNIRAKRYLAKYTINPAITHGISQYVGSLEKGKIADLVLWKPAMFGVKPEMIIKGGFIIAGRMGDANASIPTPQPVIYKNMFGAFGKAKYGTCVTFVSKASLENGVVEKMGLQRKVLPVQGCRNISKKYMVHNNATPEIEVDPETYEVKVDGEIITCEPLKVLPMAQRYFLF | not soluble |
| MAHHHHHHMEDFLTKLKKISEQYNNLLLEKKIIDKRIANIGENIRKYEETREKSLEDVELKKNQLLKNKNKHIIMCQKMEQLNGKLNEILIRKQSIDDDEEKKVINKQIHTVNNTYVLLKHVQNLNDAMLKDEGNRYYKLITENIHSKSFSNRKTLNILNSFLRKSRANIQERGSEGAKSSTPPAAIHSANYFKIIQTNDIVQKLLDLFSGDHTALTIDKQQFLFVLLMNVLRKIACASEMAIPPEDCNSRHHVIYNFLHNKYILHL | soluble |
| QVQLVESGGGSVQAGGSLRLSCAASGFTYSRKYMGWFRQAPGKEREGVAAIFIDNGNTIYADSVQGRFTISQDNAKNTVYLQMNSLKPEDTAMYYCAASSRWMDYSALTAKAYNSWGQGTQVTVSSRGRHHHHHH | soluble |
| MGSDKIHHHHHHMTPSTPTLATRWEPLPPRVVAELLGPSSARWWLSGGVALDHWLGTNTREHDNIDVSTTIADLPQVVQDLPAPFSAWAPSGDGVVPWAEADMDADLQPIRIHDDATGAWVMQVDVEDGTDSLWVYRRDPRLQLPWDRAVIDVDGIPTGAPEVQLVWKALRPRPEDDADKDAVLPELSNEARAWWEHAILTIHPHSSWSIHVRTPFAPGKASWNRTRR | not soluble |
| MRGSGQFRVIGPGHPIRALVGDEAELPCRISPGKNATGMEVGWYRSPFSRVVHLYRNGKDQDAEQAPEYRGRTELLKESIGEGKVALRIQNVRFSDEGGYTCFFRDAEYQEEAAVELKVEDPFYWINPGRSRSHHHHHH | soluble |
| MVCWSSHTASKQGNLMNQFYVHVRLFEDTAEQTKKFEELMLNFLYQKTVKESDDSCCRLIPEGYILKSTMNCQQILDQTFSIANSAGVDANIFVCKFEQSACLLPSASLVGNDFVHYDLTPKPIKLDS | not soluble |
| MGSDKIHHHHHHMSTPQFGRKVSLIIGQDSGDALDLSELRFRFDVRRGDLQTPNSARVRVYNVSPDTARRAQREFSRLVLQAGYPGNFGIIFDGTIKQVRRGRENQTDTYLDITAADGDSAYNFAVVNTTLAAGSTPSDHVAAACTAMNPYGVTQGYLPSLPSNPLPRGKVMFGMAREFMRWTARTCQTVWSIQDGKAIMVPETSYMPGEIPVITAETGMVGLPEQTQNGIAIKMLLNPSVKIGRLIQIDNASVQQYEYSLNVGQQAQNERIEQQAKLQDDGFYYVMLAEHYGDTRGNDFYTDVICLAADVTVLPDSFRDKAAVPPDNVIKRFG | not soluble |
| MIANHVSLLIMGIDENQERQKEYNGAFHTDALLLATFNKDDKTVKLTSIPRDTYTYVPVEKKTDNITHAYGSGIVNNGKDGGPQASVEAVEQLLQVPVDYFVKFNFGSFTKIVDGLDGIEVDVPVEFTEQNSKDEPDAIHLKKGLQKLNGEEALALARTRHIDSDAMRGQRQQLVIESILSKLKSVGSITKLEKIVEAVDDDFKTNLVMDDILSFYKYGLNGSVEKIQLAGDDLYLPNGPNGQRVYYYNPNKKDLQSLSNTLRTHLGLSEKQIEENLEHHHHHH | soluble |
| KHDGIPAECTTIYNRGEHTSGMYAIRPSNSQVFHVYCDVISGSPWTLIQHRIDGSQNFNETWENYKYGFGRLDGEFWLGLEKIYSIVKQSNYVLRIELEDWKDNKHYIEYSFYLGNHETNYTLHLVAITGNVPNAIPENKDLVFSTWDHKAKGHFNCPEGYSGGWWWHDECGENNLNGKYNKPRAKSKPERRRGLSWKSQNGRLYSIKSTKMLIHPTDSESFE | soluble |
| MASGRQSGRDTEEYGGLSNSGISSGSHVKDTAYYERRRKNNAAAKKSRDRRRIKEDEIAIRAAYLERQNIELLCRIDALEVQLAAITSAKVTTAAAAAAALEHHHHHH | not soluble |
| MGFGNINFCAVDLGSHKITVAIGQLAENNSIKILGVSQKQSKGIKQGSVINLEIAMETLNAALDEAKSIAGVDVKEVTLGVSAPSISGFNSYGLAAVENGEVSIEDLAMAIKTAKAVPMSADTEMLHVLQRDYIVDGQAGVTEPIGMFAVRLESNVHIIVASSRLLQNVRKCVSNCGYSISNLVVEHLAASSATLTDNEKEMGVCLVNIGADSTSFSVFADGGICYTSSIKTGGASISSDISKVFRLPIEAAESLKLQYGYAASKYLKNPDEKIDIPNSLGNAKKRISLQDLSLVIEARVEEIFESLYRELDQHRLLEVISSGIVFTGGGAKLKGLARLAEDMFKLPVRVGGPIEVSGANEVVHNPSYATVVGLLKYAAENSDTSNQQKIEEDVMEIDENTGKSKKKIISSVKGWFSNNF | not soluble |
| MLRPYVAEWFRSTYGSFTEPQRQAIPLVKQGKSVLITSPTGTGKTLAAFLGVIDEILFLMENRWEEKGILAVYVSPLRALNNDIRRNLEEPLRGIEEKAREMGLEPPRVKVAVRTSDTTPYEKQKMVKDPPHILITTPESLAAALAAPKFRERLSTVKWVVLDEIHELASNKRGAHLMVSVERLEELVREAGGKPLRRIGLSATIAPLDVVANFLGGFDDEGRPREVHIVDARFAKPIDIKVITPDVDLLRDPPDKINEAIYRKIAELVKQHRTTLIFTNTRSATERVVHKLKQILVKEGIASEDQIEAHHSSLSRNLRLDVEERLKRGELKVVVSSTSLELGIDIGYIDLVILLSSPKSVSRLLQRVGRAGHRIRDVSKGRLIVVDRDDLVECSVLADCAMKKFIDRVRIPMKPLDVLAQHIVGMSIEKKWRLEDAYRVVKRAYNFKDLSFEEFMSVVRFLAGKHGLEGEGVYSKIWLDEEEGLFGRKKSARMIYLLNVGVIPDETKIRVYTRDGKYVGDLEEEFVEILVPGDVFVLGGRTYRFLKSEGLRVIVERADDARPTVPSWFSEMLPLSFDSALKVGEFRRVFSALASSNPRAAVEKLVKEYYLEERAAATIVEYILEQLGYIGVVPSDKLVLIEYFPYEDGWGIVFHTLFGRRVNDALSRAYAVALSRRIGLPVRVAVTDNGFMLTVSEAGKPDASLLEKLIRDVTPENIRGILEEAISRTELMKRRFKHVAARMFIVLRRYKGKEVSPERLQLNSQKLLEVFLEEMKDSPPIRETFREILEDYMDIGAAGKVLEWIRKGEIEIVIKGPLPYPSPMAHSIVVRGYSDVVLMEDRRKMLMILREKVLEYIRKGRAAPTWVGGDGKGRLLKEEQ | soluble |

Source: the DeepSol protein solubility set
